From patent US20250109203A1 come the findings set out here.

The labels stand for the following.
B1: hu1D7v65 VHH-hIgG1 Fc-NNT (monomeric) (VHH)
VHH: EVQLLESGGGEVQPGGSLRLSCVASRGKISQYRMGWYRQAPGKERELVAHISNTGDAAEYVDAVKDRFTISRDSTKNALYLQMSSLRAEDTAVYKCNSVEDILAWGQGTLVTVRP
B2: hu1D7v71 VHH-hIgG1 Fc-NNT (monomeric) (VHH)
VHH: EVQLLESGGGEVQPGGSLRLSCVASRGKISQYRMGWYRQAPGKERELVAHISNTGDAAEYVDVVKDRFTISRDSTKNALYLQMSSLRAEDTAVYKCNSVEDILAWGQGTLVTVRP
B3: hu1D7v90 VHH-hIgG1 Fc-NNT (monomeric) (VHH)
VHH: EVQLLESGGGEVQPGGSLRLSCVASRGKISQYRMGWYRQAPGKERELVAHISNTGDAAEYVDSVKDRFTISRDSTKNALYLQMSSLRAEDTAVYKCSGVEDILAWGQGTLVTVRP
B4: hu1D7v91 VHH-hIgG1 Fc-NNT (monomeric) (VHH)
VHH: EVQLLESGGGEVQPGGSLRLSCVASRGKISQYRMGWYRQAPGKERELVAHISNTGDAAEYVDSVKDRFTISRDSTKNALYLQMSSLRAEDTAVYKCGGVEDILAWGQGTLVTVRP
B5: hu1D7v88 VHH-hIgG1 Fc-NNT (monomeric) (VHH)
VHH: EVQLLESGGGEVQPGGSLRLSCVASRGKISQYRMGWYRQAPGKERELVAHISNTGDAAEYVQGVKDRFTISRDSTKNALYLQMSSLRAEDTAVYKCNSVEDILAWGQGTLVTVRP
B6: hu1D7v72 VHH-hIgG1 Fc-NNT (monomeric) (VHH)
VHH: EVQLLESGGGEVQPGGSLRLSCVASRGKISQYRMGWYRQAPGKERELVAHISNTGDAAEYVDLVKDRFTISRDSTKNALYLQMSSLRAEDTAVYKCNSVEDILAWGQGTLVTVRP
B7: hu1D7v79 VHH-hIgG1 Fc-NNT (monomeric) (VHH)
VHH: EVQLLESGGGEVQPGGSLRLSCVASRGKISQYRMGWYRQAPGKERELVAHISNTGDAAEYVDSVKDRFTISRDSTKNALYLQMSSLRAEDTAVYKCNLVEDILAWGQGTLVTVRP
B8: hu1D7v81 VHH-hIgG1 Fc-NNT (monomeric) (VHH)
VHH: EVQLLESGGGEVQPGGSLRLSCVASRGKISQYRMGWYRQAPGKERELVAHISNTGDAAEYVDSVKDRFTISRDSTKNALYLQMSSLRAEDTAVYKCASVEDILAWGQGTLVTVRP
B9: hu1D7v70 VHH-hIgG1 Fc-NNT (monomeric) (VHH)
VHH: EVQLLESGGGEVQPGGSLRLSCVASRGKISQYRMGWYRQAPGKERELVAHISNTGDAAEYVDSVKDRFTISRDSTKNALYLQMSSLRAEDTAVYKCESVEDILAWGQGTLVTVRP
B10: hu1D7v66 VHH-hIgG1 Fc-NNT (monomeric) (VHH)
VHH: EVQLLESGGGEVQPGGSLRLSCVASRGKISQYRMGWYRQAPGKERELVAHISNTGDAAEYVDTVKDRFTISRDSTKNALYLQMSSLRAEDTAVYKCNSVEDILAWGQGTLVTVRP
B11: hu1D7v78 VHH-hIgG1 Fc-NNT (monomeric) (VHH)
VHH: EVQLLESGGGEVQPGGSLRLSCVASRGKISQYRMGWYRQAPGKERELVAHISNTGDAAEYVDSVKDRFTISRDSTKNALYLQMSSLRAEDTAVYKCNAVEDILAWGQGTLVTVRP
B12: hu1D7v89 VHH-hIgG1 Fc-NNT (monomeric) (VHH)
VHH: EVQLLESGGGEVQPGGSLRLSCVASRGKISQYRMGWYRQAPGKERELVAHISNTGDAAEYVDSVKDRFTISRDSTKNALYLQMSSLRAEDTAVYKCQGVEDILAWGQGTLVTVRP
B13: hu1D7v83 VHH-hIgG1 Fc-NNT (monomeric) (VHH)
VHH: EVQLLESGGGEVQPGGSLRLSCVASRGKISQYRMGWYRQAPGKERELVAHISNTGDAAEYVDGVKDRFTISRDSTKNALYLQMSSLRAEDTAVYKCNSVEDILAWGQGTLVTVRP
B14: hu1D7v67 VHH-hIgG1 Fc-NNT (monomeric) (VHH)
VHH: EVQLLESGGGEVQPGGSLRLSCVASRGKISQYRMGWYRQAPGKERELVAHISNTGDAAEYVDSVKDRFTISRDSTKNALYLQMSSLRAEDTAVYKCQSVEDILAWGQGTLVTVRP
B15: hu1D7v80 VHH-hIgG1 Fc-NNT (monomeric) (VHH)
VHH: EVQLLESGGGEVQPGGSLRLSCVASRGKISQYRMGWYRQAPGKERELVAHISNTGDAAEYVDSVKDRFTISRDSTKNALYLQMSSLRAEDTAVYKCNVVEDILAWGQGTLVTVRP
B16: hu1D7v75 VHH-hIgG1 Fc-NNT (monomeric) (VHH)
VHH: EVQLLESGGGEVQPGGSLRLSCVASRGKISQYRMGWYRQAPGKERELVAHISNTGDAAEYVGSVKDRFTISRDSTKNALYLQMSSLRAEDTAVYKCNSVEDILAWGQGTLVTVRP
B17: hu1D7v8 VHH-hIgG1 Fc-NNT (monomeric) (VHH)
VHH: EVQLLESGGGEVQPGGSLRLSCVASRGKISQYAMGWYRQAPGKGLEWVAHISNTGDAAEYVDSVKGRFTISRDSTKNAVYLQMSSLRAEDTAVYKCNSVEDILAWGQGTLVTVKP
B18: hu1D7v73 VHH-hIgG1 Fc-NNT (monomeric) (VHH)
VHH: EVQLLESGGGEVQPGGSLRLSCVASRGKISQYRMGWYRQAPGKERELVAHISNTGDAAEYVDIVKDRFTISRDSTKNALYLQMSSLRAEDTAVYKCNSVEDILAWGQGTLVTVRP
B19: hu1D7v6 VHH-hIgG1 Fc-NNT (monomeric) (VHH)
VHH: EVQLLESGGGEVQPGGSLRLSCVASRGKFSQYRMGWYRQAPGKGLEWVAHISNTGDAAEYVDSVKGRFTISRDSTKNAVYLQMSSLRAEDTAVYKCNSVEDILAWGQGTLVTVKP
B20: hu1D7v69 VHH-hIgG1 Fc-NNT (monomeric) (VHH)
VHH: EVQLLESGGGEVQPGGSLRLSCVASRGKISQYRMGWYRQAPGKERELVAHISNTGDAAEYVDSVKDRFTISRDSTKNALYLQMSSLRAEDTAVYKCTSVEDILAWGQGTLVTVRP
B21: hu1D7v74 VHH-hIgG1 Fc-NNT (monomeric) (VHH)
VHH: EVQLLESGGGEVQPGGSLRLSCVASRGKISQYRMGWYRQAPGKERELVAHISNTGDAAEYVASVKDRFTISRDSTKNALYLQMSSLRAEDTAVYKCNSVEDILAWGQGTLVTVRP
B22: hu1D7v84 VHH-hIgG1 Fc-NNT (monomeric) (VHH)
VHH: EVQLLESGGGEVQPGGSLRLSCVASRGKISQYRMGWYRQAPGKERELVAHISNTGDAAEYVEGVKDRFTISRDSTKNALYLQMSSLRAEDTAVYKCNSVEDILAWGQGTLVTVRP
B23: hu1D7v76 VHH-hIgG1 Fc-NNT (monomeric) (VHH)
VHH: EVQLLESGGGEVQPGGSLRLSCVASRGKISQYRMGWYRQAPGKERELVAHISNTGDAAEYVVSVKDRFTISRDSTKNALYLQMSSLRAEDTAVYKCNSVEDILAWGQGTLVTVRP
B24: hu1D7v87 VHH-hIgG1 Fc-NNT (monomeric) (VHH)
VHH: EVQLLESGGGEVQPGGSLRLSCVASRGKISQYRMGWYRQAPGKERELVAHISNTGDAAEYVQSVKDRFTISRDSTKNALYLQMSSLRAEDTAVYKCNSVEDILAWGQGTLVTVRP

The target of the experiment is human γδ TCR (Vγ9Vδ2) on human Vδ2+ γδ T cells (human) (UniProt A0JD36). In words: flow cytometry on expanded human Vδ2+ γδ T cells, nonlinear fit. (In general: In flow cytometry, cells or beads pass a laser one at a time.)
A word on the Kd: it is the constant that tells how readily two partners part at equilibrium. A high value points to weaker binding. The molecule B1 registered a Kd of 347 nM.

In turn, B2 gave a Kd of 135 nM.

For B3, the Kd stood at 95.6 nM.

The molecule B4 registered a Kd of 154 nM.

In turn, B5 came in with a Kd of 61.5 nM.

In turn, B6 gave a Kd of 182 nM.

As to B7, the Kd was found to be 497 nM.

Molecule B8 showed a Kd of 843 nM.

In turn, B9 returned a Kd of 441 nM.

B10: the Kd worked out at 93.3 nM.

Molecule B11 displayed a Kd of 481 nM.

B12 returned a Kd of 1950 nM.

With B13, the Kd worked out at 36.3 nM.

B14 showed an equilibrium dissociation constant (Kd) of 1740 nM.

Molecule B15 had a Kd of 646 nM.

Regarding B16, the dissociation constant Kd amounted to 118 nM.

B17 showed a Kd of 7870 nM.

The molecule B18 displayed a Kd of 180 nM.

For the molecule B19, the Kd was found to be 35.1 nM.

B20 had a Kd of 1010 nM.

In the case of B21, the Kd was 60.4 nM.

In the case of B22, the Kd is 43.6 nM.

Consider B23, for which the Kd stood at 125 nM.

B24: the Kd is 44.9 nM.
